Substrate in the series: Nc1ccn([C@@H]2O[C@H](COP(=O)(O)OP(=O)(O)OP(=O)(O)O)[C@@H](O)[C@H]2O)c(=O)n1
Briefly: discontinuous CMP-Kdo formation assay (Ray et al.), non-linear Michaelis-Menten fit. The following applies: co-substrate Kdo held constant (>5 x Km), 10 mM MgCl2 (typical mixture), 100 mM glycine-NaOH pH 9.0, 50°C. It is filed as biochemical, Aquifex aeolicus.

B1: AA-LCKS (LPS-specific CMP-Kdo synthetase, KdsB) (Aquifex aeolicus VF5) (protein)
chain: MRRAVIIPARLGSTRLKEKPLKNLLGKPLIRWVVEGLVKTGERVILATDSERVKEVVEDLCEVFLTPSDLPSGSDRVLYVVRDLDVDLIINYQGDEPFVYEEDIKLIFRELEKGERVVTLARKDKEAYERPEDVKVVLDREGYALYFSRSPIPYFRKNDTFYPLKHVGIYGFRKETLMEFGAMPPSKLEQIEGLEQLRLLENGIKIKVLITENYYHGVDTEEDLKIVEEKLKNL
notes: recombinant from plasmid pT7-kdsB in E. coli BL21-CodonPlus(DE3)-RIL; no tag mentioned; monomer 27 kDa, gel filtration 53 kDa, homodimer
Turning to B1, the Km is 160 ± 4 µM and the kcat turned out to be 9.5 ± 0.5 s⁻¹.

(Values after PMC3149649, “Evidence for a Two-Metal-Ion Mechanism in the Cytidyltransferase KdsB, an Enzyme Involved in Lipopolysaccharide Biosynthesis” (PLoS ONE, 2011).)
